According to patent US20210363254A1 (Novartis, published 2021):
Changes are numbered by the printed parent chain.

B1: BAP049-hum10 (antibody, human IgG4 S228P, kappa)
heavy: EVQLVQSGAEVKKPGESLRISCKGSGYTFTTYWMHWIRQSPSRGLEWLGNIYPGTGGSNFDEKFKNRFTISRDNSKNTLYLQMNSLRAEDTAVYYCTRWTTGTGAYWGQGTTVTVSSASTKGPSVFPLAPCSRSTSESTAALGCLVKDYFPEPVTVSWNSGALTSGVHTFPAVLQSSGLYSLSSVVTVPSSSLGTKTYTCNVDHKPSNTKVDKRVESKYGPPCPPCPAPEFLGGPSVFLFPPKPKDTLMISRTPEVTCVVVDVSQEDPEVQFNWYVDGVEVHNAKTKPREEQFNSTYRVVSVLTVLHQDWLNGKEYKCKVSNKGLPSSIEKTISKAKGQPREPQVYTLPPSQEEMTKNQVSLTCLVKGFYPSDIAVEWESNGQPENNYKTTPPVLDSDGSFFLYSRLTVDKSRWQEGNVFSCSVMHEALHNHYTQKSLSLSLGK
light: EIVLTQSPATLSLSPGERATLSCKSSQSLLDSGNQKNFLTWYQQKPGQAPRLLIYWASTRESGVPSRFSGSGSGTDFTFTISSLEAEDAATYYCQNDYSYPYTFGQGTKVEIKRTVAAPSVFIFPPSDEQLKSGTASVVCLLNNFYPREAKVQWKVDNALQSGNSQESVTEQDSKDSTYSLSSTLTLSKADYEKHKVYACEVTHQGLSSPVTKSFNRGEC
notes: also called humanized BAP049 clone hum10
B2: BAP049-hum11 (antibody, human IgG4 S228P, kappa)
heavy: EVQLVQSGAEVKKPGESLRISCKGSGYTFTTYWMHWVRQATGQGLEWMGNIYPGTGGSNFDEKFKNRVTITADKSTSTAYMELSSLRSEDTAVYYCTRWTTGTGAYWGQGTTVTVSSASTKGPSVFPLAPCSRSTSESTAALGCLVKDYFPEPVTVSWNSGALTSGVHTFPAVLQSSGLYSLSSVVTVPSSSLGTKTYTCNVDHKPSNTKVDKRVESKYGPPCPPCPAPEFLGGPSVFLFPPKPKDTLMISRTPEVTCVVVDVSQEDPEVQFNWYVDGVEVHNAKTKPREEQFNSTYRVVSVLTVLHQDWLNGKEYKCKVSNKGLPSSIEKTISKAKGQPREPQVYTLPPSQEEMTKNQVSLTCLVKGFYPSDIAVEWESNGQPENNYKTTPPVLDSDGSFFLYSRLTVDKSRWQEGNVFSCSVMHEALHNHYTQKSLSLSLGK
light: B1 light
notes: also called humanized BAP049 clone hum11
B3: BAP049-hum15 (antibody, human IgG4 S228P, kappa)
heavy chain: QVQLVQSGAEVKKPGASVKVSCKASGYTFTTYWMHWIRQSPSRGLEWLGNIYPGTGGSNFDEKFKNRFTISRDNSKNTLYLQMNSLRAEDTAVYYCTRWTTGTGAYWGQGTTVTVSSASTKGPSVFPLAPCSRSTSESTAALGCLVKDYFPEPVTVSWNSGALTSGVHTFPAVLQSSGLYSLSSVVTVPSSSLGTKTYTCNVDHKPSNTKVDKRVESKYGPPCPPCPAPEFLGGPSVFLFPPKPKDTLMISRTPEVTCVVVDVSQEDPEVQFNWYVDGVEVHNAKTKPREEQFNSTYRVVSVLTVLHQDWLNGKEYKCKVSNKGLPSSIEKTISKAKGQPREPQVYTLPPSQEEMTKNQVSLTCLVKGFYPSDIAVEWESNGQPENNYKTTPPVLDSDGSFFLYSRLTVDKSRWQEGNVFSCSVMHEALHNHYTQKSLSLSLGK
light chain: B1 light with A9D, T10F, L11Q, L13V, S14T, G16K, R18K, A19V, L21I, S22T
notes: also called clone 15
B4: BAP049-hum09 (antibody, human IgG4 S228P, kappa)
heavy: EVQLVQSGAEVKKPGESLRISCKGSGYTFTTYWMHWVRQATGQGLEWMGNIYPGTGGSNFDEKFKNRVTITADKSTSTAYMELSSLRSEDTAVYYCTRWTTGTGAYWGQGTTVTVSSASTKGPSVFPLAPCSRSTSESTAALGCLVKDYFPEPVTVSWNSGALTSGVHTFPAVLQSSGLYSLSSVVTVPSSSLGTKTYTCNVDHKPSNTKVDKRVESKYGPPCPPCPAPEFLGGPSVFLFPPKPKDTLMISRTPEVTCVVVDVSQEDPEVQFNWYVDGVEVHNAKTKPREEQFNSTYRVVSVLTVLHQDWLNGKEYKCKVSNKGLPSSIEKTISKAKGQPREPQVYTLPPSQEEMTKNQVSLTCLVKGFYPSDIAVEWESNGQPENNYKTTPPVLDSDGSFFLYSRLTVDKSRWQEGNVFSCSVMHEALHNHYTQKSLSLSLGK
light: B1 light with A9D, T10F, L11Q, L13V, S14T, G16K, R18K, A19V, L21I, S22T
notes: also called humanized BAP049 clone hum09
B5: BAP049-hum01 (antibody, human IgG4 S228P, kappa, V domains shown)
VH: EVQLVQSGAEVKKPGESLRISCKGSGYTFTTYWMHWVRQATGQGLEWMGNIYPGTGGSNFDEKFKNRVTITADKSTSTAYMELSSLRSEDTAVYYCTRWTTGTGAYWGQGTTVTVSS
VL: EIVLTQSPATLSLSPGERATLSCKSSQSLLDSGNQKNFLTWYQQKPGQAPRLLIYWASTRESGVPSRFSGSGSGTEFTLTISSLQPDDFATYYCQNDYSYPYTFGQGTKVEIKR
notes: Humanized anti-PD-1 mAb; also called humanized BAP049 clone hum01
B6: BAP049-hum07 (antibody, human IgG4 S228P, kappa)
heavy chain: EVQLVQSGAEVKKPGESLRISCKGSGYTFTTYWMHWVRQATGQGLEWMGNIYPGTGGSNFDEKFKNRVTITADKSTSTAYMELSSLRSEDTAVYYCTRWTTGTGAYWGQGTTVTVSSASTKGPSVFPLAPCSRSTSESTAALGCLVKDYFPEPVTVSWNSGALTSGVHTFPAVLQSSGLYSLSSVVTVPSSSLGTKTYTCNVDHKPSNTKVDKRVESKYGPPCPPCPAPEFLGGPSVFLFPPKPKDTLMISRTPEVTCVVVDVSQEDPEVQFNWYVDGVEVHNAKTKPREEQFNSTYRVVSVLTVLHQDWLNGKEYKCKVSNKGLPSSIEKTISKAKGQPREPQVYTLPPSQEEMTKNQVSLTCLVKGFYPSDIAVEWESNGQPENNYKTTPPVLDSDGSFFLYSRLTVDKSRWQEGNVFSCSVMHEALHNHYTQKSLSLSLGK
light chain: B1 light with Q48K, R51K
notes: also called clone 7
B7: BAP049-hum06 (antibody, human IgG4 S228P, kappa)
heavy chain: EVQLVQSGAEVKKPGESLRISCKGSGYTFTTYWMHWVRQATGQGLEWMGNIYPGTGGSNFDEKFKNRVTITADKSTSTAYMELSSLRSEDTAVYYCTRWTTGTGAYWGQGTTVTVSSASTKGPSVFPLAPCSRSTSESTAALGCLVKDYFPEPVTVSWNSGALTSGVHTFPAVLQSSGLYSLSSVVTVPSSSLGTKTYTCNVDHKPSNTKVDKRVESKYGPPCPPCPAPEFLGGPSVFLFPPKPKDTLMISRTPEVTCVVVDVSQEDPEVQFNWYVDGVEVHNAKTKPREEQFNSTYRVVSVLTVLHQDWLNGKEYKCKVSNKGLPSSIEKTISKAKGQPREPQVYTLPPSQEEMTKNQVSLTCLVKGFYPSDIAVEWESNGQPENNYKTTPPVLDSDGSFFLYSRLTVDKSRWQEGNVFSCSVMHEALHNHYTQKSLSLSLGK
light chain: DIVMTQTPLSLPVTPGEPASISCKSSQSLLDSGNQKNFLTWYQQKPGQAPRLLIYWASTRESGVPSRFSGSGSGTDFTFTISSLEAEDAATYYCQNDYSYPYTFGQGTKVEIKRTVAAPSVFIFPPSDEQLKSGTASVVCLLNNFYPREAKVQWKVDNALQSGNSQESVTEQDSKDSTYSLSSTLTLSKADYEKHKVYACEVTHQGLSSPVTKSFNRGEC
notes: also called clone 6
B8: BAP049-hum05 (antibody, human IgG4 S228P, kappa, V domains shown)
VH: B5 VH
VL: B5 VL with Q48K, R51K, E76D, L79F, D87E, F89I
notes: also called humanized BAP049 clone hum05
B9: BAP049-hum08 (antibody, human IgG4 S228P, kappa)
heavy: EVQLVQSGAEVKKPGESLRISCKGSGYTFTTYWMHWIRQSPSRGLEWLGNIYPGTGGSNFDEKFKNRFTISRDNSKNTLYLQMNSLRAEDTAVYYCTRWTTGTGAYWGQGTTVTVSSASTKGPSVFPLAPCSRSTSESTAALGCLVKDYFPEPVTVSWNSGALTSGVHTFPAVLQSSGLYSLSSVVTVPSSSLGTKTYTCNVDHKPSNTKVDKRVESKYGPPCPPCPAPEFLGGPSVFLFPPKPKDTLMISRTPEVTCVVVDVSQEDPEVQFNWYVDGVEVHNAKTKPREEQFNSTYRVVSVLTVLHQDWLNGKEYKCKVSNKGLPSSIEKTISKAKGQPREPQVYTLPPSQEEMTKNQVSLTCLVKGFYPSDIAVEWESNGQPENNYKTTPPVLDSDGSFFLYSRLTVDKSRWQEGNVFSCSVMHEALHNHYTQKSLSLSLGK
light: B1 light with A9D, T10F, L11Q, L13V, S14T, G16K, R18K, A19V, L21I, S22T
notes: also called humanized BAP049 clone hum08
B10: BAP049-hum04 (antibody, human IgG4 S228P, kappa, V domains shown)
VH: EVQLVQSGAEVKKPGESLRISCKGSGYTFTTYWMHWIRQSPSRGLEWLGNIYPGTGGSNFDEKFKNRFTISRDNSKNTLYLQMNSLRAEDTAVYYCTRWTTGTGAYWGQGTTVTVSS
VL: B5 VL with Q48K, R51K, E76D, L79F, D87E, F89I
notes: also called clone 4
B11: BAP049-hum14 (antibody, human IgG4 S228P, kappa)
heavy chain: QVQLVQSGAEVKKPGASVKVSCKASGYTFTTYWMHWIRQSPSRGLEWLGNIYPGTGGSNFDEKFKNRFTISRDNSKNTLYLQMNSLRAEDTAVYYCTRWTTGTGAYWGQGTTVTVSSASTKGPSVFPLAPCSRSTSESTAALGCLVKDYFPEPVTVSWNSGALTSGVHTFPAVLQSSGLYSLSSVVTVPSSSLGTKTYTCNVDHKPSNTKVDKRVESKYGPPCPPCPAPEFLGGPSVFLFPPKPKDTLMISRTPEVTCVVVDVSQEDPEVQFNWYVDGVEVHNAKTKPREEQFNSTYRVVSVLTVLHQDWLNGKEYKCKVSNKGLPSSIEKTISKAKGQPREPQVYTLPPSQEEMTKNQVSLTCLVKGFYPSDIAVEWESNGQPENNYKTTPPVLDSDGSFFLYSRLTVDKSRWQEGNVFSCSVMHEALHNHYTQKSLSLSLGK
light chain: B1 light
notes: also called clone 14
B12: BAP049-hum02 (antibody, human IgG4 S228P, kappa, V domains shown)
VH: B5 VH
VL: DIQMTQSPSSLSASVGDRVTITCKSSQSLLDSGNQKNFLTWYQQKPGQAPRLLIYWASTRESGIPPRFSGSGYGTDFTLTINNIESEDAAYYFCQNDYSYPYTFGQGTKVEIKR
notes: also called clone 2
B13: BAP049-hum03 (antibody, human IgG4 S228P, kappa, V domains shown)
VH: B10 VH
VL: B12 VL
notes: also called clone 3
B14: BAP049-hum12 (antibody, human IgG4 S228P, kappa, V domains shown)
VH: B5 VH
VL: DIQMTQSPSSLSASVGDRVTITCKSSQSLLDSGNQKNFLTWYLQKPGQSPQLLIYWASTRESGVPSRFSGSGSGTDFTFTISSLEAEDAATYYCQNDYSYPYTFGQGTKVEIKR
notes: also called clone 12
B15: BAP049-hum13 (antibody, human IgG4 S228P, kappa)
heavy chain: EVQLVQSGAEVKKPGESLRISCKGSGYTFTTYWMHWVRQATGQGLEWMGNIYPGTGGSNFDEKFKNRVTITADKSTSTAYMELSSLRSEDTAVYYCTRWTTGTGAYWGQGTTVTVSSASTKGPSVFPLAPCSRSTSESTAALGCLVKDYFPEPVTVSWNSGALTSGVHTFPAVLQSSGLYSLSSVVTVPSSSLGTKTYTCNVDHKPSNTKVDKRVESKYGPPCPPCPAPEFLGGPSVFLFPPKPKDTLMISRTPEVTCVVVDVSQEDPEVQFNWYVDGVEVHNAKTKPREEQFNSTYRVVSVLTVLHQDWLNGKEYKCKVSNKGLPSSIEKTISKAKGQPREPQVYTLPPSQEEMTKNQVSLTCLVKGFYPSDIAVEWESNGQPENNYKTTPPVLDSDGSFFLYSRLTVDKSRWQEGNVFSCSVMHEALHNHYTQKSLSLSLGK
light chain: B7 light chain with I2V, T7S, P15L, E17Q, Q48K, R51K
notes: also called clone 13
B16: BAP049-hum16 (antibody, human IgG4 S228P, kappa, V domains shown)
VH: B10 VH with I37V, S40A, S42G, R43Q, L48M
VL: EIVLTQSPDFQSVTPKEKVTITCKSSQSLLDSGNQKNFLTWYQQKPGQAPRLLIYWASTRESGVPSRFSGSGSGTDFTFTISSLEAEDAATYYCQNDYSYPYTFGQGTKVEIKR
notes: also called clone 16
B17: Chi mAb (Tyr) (antibody, human IgG4 S228P, kappa, V domains shown)
VH: QVQLQQSGSELVRPGASVKLSCKASGYTFTTYWMHWVRQRPGQGLEWIGNIYPGTGGSNFDEKFKNRTSLTVDTSSTTAYMHLASLTSEDSAVYYCTRWTTGTGAYWGQGTTVTVSS
VL: DIVMTQSPSSLTVTAGEKVTMSCKSSQSLLDSGNQKNFLTWYQQKPGQPPKLLIFWASTRESGVPDRFTGSGSVTDFTLTISSVQAEDLAVYYCQNDYSYPYTFGQGTKVEIKR
notes: also called BAP049-chi-Y; Chi (Tyr)
B18: Mu mAb (antibody, V domains shown)
VH: B17 VH with T112L, S117A
VL: DIVMTQSPSSLTVTAGEKVTMSCKSSQSLLDSGNQKNFLTWYQQKPGQPPKLLIFWASTRESGVPDRFTGSGSVTDFTLTISSVQAEDLAVYYCQNDYSYPCTFGGGTKLEIK
notes: also called murine mAb BAP049; murine anti-PD-1 mAb BAP049

These binders were tested against T1, Programmed Death 1 (PD-1) (UniProt Q15116 25-288, limits assumed) (assay: rank of the clone among the humanized BAP049 clones by FACS data).
T1 sequence (Q15116 25-288 limits assumed): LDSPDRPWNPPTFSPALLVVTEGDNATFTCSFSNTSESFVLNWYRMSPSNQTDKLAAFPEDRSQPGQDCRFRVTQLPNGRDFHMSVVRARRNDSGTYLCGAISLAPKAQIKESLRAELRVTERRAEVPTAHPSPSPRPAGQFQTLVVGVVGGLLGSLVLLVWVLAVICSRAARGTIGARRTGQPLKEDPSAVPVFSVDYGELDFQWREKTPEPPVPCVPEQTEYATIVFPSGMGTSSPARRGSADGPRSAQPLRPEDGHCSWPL
For B1, the “Ranking, FACS data” value was 7. For B2, the “Ranking, FACS data” value was 6. B3 was tested, and the “Ranking, FACS data” value was 6. With B4 the “Ranking, FACS data” value was 7. For B5, the “Ranking, FACS data” value was 2. With B6 the “Ranking, FACS data” value was 4. With B7 the “Ranking, FACS data” value was 1. In the case of B8, the “Ranking, FACS data” value is reported as 5. B9 was tested, and the “Ranking, FACS data” value was 7. With B10 the “Ranking, FACS data” value was 14. B11 was tested, and the “Ranking, FACS data” value was 16. In the case of B12, the “Ranking, FACS data” value is reported as 6. B13 was tested, and the “Ranking, FACS data” value was 7. In the case of B14, the “Ranking, FACS data” value is reported as 3. With B15 the “Ranking, FACS data” value was 6. B16 was tested, and the “Ranking, FACS data” value was 15.

Each binder was assayed against T1, Programmed Death 1 (PD-1) (assay: rank of the clone by competition binding against labelled murine mAb BAP049, first experiment (legends paragraph 52)).
For B1, the “Competition Binding, 1st exp. (rank)” value was 6. With B2 the “Competition Binding, 1st exp. (rank)” value was 4. B3 was tested, and the “Competition Binding, 1st exp. (rank)” value was 7. For B4, the “Competition Binding, 1st exp. (rank)” value was 2. B5 was tested, and the “Competition Binding, 1st exp. (rank)” value was 7. In the case of B6, the “Competition Binding, 1st exp. (rank)” value is reported as 7. B7 was tested, and the “Competition Binding, 1st exp. (rank)” value was 7. For B8, the “Competition Binding, 1st exp. (rank)” value was 5. With B9 the “Competition Binding, 1st exp. (rank)” value was 7. For B10, the “Competition Binding, 1st exp. (rank)” value was 15. With B11 the “Competition Binding, 1st exp. (rank)” value was 7. B12 was tested, and the “Competition Binding, 1st exp. (rank)” value was 3. In the case of B13, the “Competition Binding, 1st exp. (rank)” value is reported as 8. For B14, the “Competition Binding, 1st exp. (rank)” value was 8. In the case of B15, the “Competition Binding, 1st exp. (rank)” value is reported as 1. With B16 the “Competition Binding, 1st exp. (rank)” value was 16.

What follows are binders tested against T1, Programmed Death 1 (PD-1) (assay: FACS, blocking of ligand-Ig binding to PD-1, MFI of bound ligand against mAb concentration; legend paragraph 53 names 'PD-LI-Ig and PD-L2-Ig' for FIG. 8A; cells not named).
B1 was tested, and the “IC50 (read off the curve)” value was about 1 µg/mL. For B5, the “IC50 (read off the curve)” value was about 1 µg/mL. B8 was tested, and the “IC50 (read off the curve)” value was about 1 µg/mL. For B17, the “IC50 (read off the curve)” value was about 0.9 µg/mL. With B18 the “IC50 (read off the curve)” value was about 0.7 µg/mL.

What follows are binders tested against T1, Programmed Death 1 (PD-1) (assay: rank of the clone by competition binding against labelled murine mAb BAP049, second experiment (legends paragraph 52); footnote: empty boxes means worse than 4).
For B1, the “Competition Binding, 2nd exp. (rank)” value was over 4. For B2, the “Competition Binding, 2nd exp. (rank)” value was over 4. With B3 the “Competition Binding, 2nd exp. (rank)” value was 15. B4 was tested, and the “Competition Binding, 2nd exp. (rank)” value was 4. B5 was tested, and the “Competition Binding, 2nd exp. (rank)” value was 2. For B6, the “Competition Binding, 2nd exp. (rank)” value was over 4. B7 was tested, and the “Competition Binding, 2nd exp. (rank)” value was 3. In the case of B8, the “Competition Binding, 2nd exp. (rank)” value is reported as over 4. For B9, the “Competition Binding, 2nd exp. (rank)” value was 4. In the case of B10, the “Competition Binding, 2nd exp. (rank)” value is reported as 15. B11 was tested, and the “Competition Binding, 2nd exp. (rank)” value was 15. In the case of B12, the “Competition Binding, 2nd exp. (rank)” value is reported as 2. In the case of B13, the “Competition Binding, 2nd exp. (rank)” value is reported as 14. In the case of B14, the “Competition Binding, 2nd exp. (rank)” value is reported as 16. B15 was tested, and the “Competition Binding, 2nd exp. (rank)” value was 1. In the case of B16, the “Competition Binding, 2nd exp. (rank)” value is reported as 15.
